{"source": "patent US20120114630", "proteins": {"B1": {"name": "microplasminogen variant Lys137Met (K137M) (protein)", "chain": "APSFDCGKPQVEPKKCPGRVVGGCVAHPHSWPWQVSLRTRFGMHFCGGTLISPEWVLTAAHCLEKSPRPSSYKVILGAHQEVNLEPHVQEIEVSRLFLEPTRKDIALLKLSSPAVITDKVIPACLPSPNYVVADRTECFITGWGETQGTFGAGLLMEAQLPVIENKVCNRYEFLNGRVQSTELCAGHLAGGTDSCQGDSGGPLVCFEKDKYILQGVTSWGLGCARPNKPGVYVRVSRFVTWIEGVMRNN"}}, "biological_target": "recombinant staphylokinase SAK-SY162", "data": [{"protein": "B1", "values": [{"measurement": "conversion of inactive microplasminogen into active microplasmin, HPLC profile 10 min after addition of staphylokinase", "value": "~85", "unit": "%"}]}]}
